We go through three sequences from paper PMC5366180.

Data set [1] has as its target T1, protein tyrosine kinase-7 (PTK7) ((Jurkat T-cells)) (UniProt Q13308).
T1 sequence: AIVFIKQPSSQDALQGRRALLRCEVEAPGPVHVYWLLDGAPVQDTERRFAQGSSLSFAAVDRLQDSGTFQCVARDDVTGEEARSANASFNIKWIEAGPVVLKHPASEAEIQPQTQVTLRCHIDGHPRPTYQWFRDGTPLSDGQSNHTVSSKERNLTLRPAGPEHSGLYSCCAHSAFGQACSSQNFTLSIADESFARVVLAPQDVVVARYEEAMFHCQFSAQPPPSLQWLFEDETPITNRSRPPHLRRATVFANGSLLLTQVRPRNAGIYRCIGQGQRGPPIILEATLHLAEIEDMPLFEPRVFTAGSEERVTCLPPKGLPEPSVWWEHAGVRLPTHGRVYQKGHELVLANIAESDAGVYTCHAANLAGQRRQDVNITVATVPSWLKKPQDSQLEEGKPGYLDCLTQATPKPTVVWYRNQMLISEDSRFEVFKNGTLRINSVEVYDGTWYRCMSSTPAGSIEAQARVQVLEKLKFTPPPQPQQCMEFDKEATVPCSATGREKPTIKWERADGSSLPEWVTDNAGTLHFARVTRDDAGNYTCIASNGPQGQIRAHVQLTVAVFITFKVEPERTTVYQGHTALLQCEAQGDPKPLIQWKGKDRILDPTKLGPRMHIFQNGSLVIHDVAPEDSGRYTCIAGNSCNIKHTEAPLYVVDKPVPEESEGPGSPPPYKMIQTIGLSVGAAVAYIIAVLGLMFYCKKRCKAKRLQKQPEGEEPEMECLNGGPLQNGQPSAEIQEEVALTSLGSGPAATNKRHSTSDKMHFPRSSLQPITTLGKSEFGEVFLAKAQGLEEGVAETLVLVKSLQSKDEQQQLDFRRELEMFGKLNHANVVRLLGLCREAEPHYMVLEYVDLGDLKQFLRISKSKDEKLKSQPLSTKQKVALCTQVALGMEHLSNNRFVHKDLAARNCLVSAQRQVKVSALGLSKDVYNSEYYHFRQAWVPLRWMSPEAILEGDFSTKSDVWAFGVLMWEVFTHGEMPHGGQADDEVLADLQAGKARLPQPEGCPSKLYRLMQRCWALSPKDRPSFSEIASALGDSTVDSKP
Description: competition (AFM single-molecule force spectroscopy). Particulars: 1 uM free sgc8c blocks; 38.3% before block; Aptamer tips prepared and stored in PBS; fixed Jurkat T-cells on Cell-Tak glass; pulling speeds 500-24000 nm/s; measurement buffer, pH and temperature not …; scale: % residual binding probability of tip sgc8c.

Data set [2] deals with T1, protein tyrosine kinase-7 (PTK7) ((Jurkat T-cells)). The experiment in a line: AFM single-molecule force spectroscopy. The conditions noted are these: fixed Jurkat T-cells on Cell-Tak glass, pulling speeds 500-24000 nm/s, measurement buffer, pH and temperature not ….
The target is the same in data set [3]. Description: cited value. The conditions noted are these: 5' NH2 or 5' SH; Aptamer tips prepared and stored in PBS; fixed Jurkat T-cells on Cell-Tak glass; pulling speeds 500-24000 nm/s; measurement buffer, pH and temperature not …; cited from earlier work.

On to “ATCTAACTGCTGCGCCGCGAAAATACTGTACGGTTAGA [sgc8c (free)]”, for which, in data set [1], the binding signal came out at 10.2. In general, Kd refers to the equilibrium constant for the complex coming apart. Turning to “ATCTAACTGCTGCGCCGCGAAAATACTGTACGGTTAGA [sgc8c (tip-tethered)]”, the binding signal (% binding probability) in data set [2] (koff 5.16 ± 0.19 s-1, x_beta 0.65 ± 0.01 Å, 5' NH2 or 5' SH, Aptamer tips prepared and stored in PBS) was determined as 38.3. Besides, the Kd in data set [3] was 0.8 nM.

As for “CACCGGGAGGATAGTTCGGTGGCTGTTCAGGGTCTCCTCCCGGTG [TDO5]”, the binding signal (% binding probability) in data set [2] (background level, stated not to bind PTK7, 5' NH2, Aptamer tips prepared and stored in PBS) came to 8.27.
